Reference: paper PMC2217618

Target: RGDPEG-avidin (UniProt P02701)
Test: ELISA

Chain of Bio-ULS-TRAIL (P50591 114-281): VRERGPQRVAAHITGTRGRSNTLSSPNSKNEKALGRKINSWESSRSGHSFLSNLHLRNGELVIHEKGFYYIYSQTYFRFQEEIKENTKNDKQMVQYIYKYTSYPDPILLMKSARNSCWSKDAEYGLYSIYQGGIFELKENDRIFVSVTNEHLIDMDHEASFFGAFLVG
Chain of RGDPEG-avidin (P02701 25-152): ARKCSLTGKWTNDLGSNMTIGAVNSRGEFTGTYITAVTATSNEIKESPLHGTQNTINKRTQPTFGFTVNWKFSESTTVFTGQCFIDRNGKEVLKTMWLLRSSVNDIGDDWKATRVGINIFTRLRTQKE

## Bio-ULS-TRAIL (from UniProt P50591 114-281) (ligand)
  binding less than Bio-NHS-TRAIL: 40 % less
